Laboratory results from patent publication US20030152959A1 (WISCONSIN ALUMNI RESEARCH FOUNDATION, published 2003).

Target: T1, estrogen receptor α (ERα) (human, UniProt P03372 1-595)
T1 construct: Used as 35S-methionine-labelled protein from rabbit reticulocyte lysate, as purified recombinant ERα, and in whole-cell extract of transfected COS cells; also called NR3A1
T1 sequence (looked up): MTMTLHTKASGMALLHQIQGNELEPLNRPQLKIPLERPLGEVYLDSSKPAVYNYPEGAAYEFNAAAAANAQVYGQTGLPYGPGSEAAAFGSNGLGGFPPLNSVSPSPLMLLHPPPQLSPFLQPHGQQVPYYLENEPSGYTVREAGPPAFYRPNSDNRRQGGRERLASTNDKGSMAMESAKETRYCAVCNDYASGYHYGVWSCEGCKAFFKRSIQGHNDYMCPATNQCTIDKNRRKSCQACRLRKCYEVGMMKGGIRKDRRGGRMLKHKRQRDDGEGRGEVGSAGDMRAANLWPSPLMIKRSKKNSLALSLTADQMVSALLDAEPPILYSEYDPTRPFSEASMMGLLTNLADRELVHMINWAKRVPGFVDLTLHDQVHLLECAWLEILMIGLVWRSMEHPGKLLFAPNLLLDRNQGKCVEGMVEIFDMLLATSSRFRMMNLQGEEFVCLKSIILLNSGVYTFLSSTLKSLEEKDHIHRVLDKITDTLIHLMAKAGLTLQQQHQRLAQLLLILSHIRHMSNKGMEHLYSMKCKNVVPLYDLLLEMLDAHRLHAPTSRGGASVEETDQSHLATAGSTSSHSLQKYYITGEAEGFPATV
Assay: GST-fusion protein binding experiment with purified recombinant ERα (data referred to Johnston 1996 thesis)

B1: GST-TFIIB (other, UniProt Q00403 1-316, looked up)
chain: MASTSRLDALPRVTCPNHPDAILVEDYRAGDMICPECGLVVGDRVIDVGSEWRTFSNDKATKDPSRVGDSQNPLLSDGDLSTMIGKGTGAASFDEFGNSKYQNRRTMSSSDRAMMNAFKEITTMADRINLPRNIVDRTNNLFKQVYEQKSLKGRANDAIASACLYIACRQEGVPRTFKEICAVSRISKKEIGRCFKLILKALETSVDLITTGDFMSRFCSNLCLPKQVQMAATHIARKAVELDLVPGRSPISVAAAAIYMASQASAEKRTQKEIGDIAGVADVTIRQSYRLIYPRAPDLFPTDFKFDTPVDKLPQL
notes: not shown: glutathione S-transferase encoded by the pGEX vector
B1: binds.
